The values below come from patent publication US11938195B2, “Upconversion nanoparticle peptide conjugates” (BP InnoMed Limited, priority 2021, dated 2024).

Data set [1] in a line: Peptide release from nanoprobes under various pH buffers (UV-vis absorbance). The class given is physicochemical. The following applies: 24 h in buffer, 0.5 mg/mL. The text has this:
The stability and capability of cleavage of the pH linker were also studied. […] More importantly, TEM images of UCNP-P5 at different pH buffers were observed and investigated in FIG. 1, providing direct evidence on pH-responsive peptide release from UCNP. […]

The target in data set [2] is EBNA1 (DNA-binding domain fragment of a.a.468-607) (Epstein-Barr virus, UniProt P03211). Description: EBNA1 dimerization/oligomerization inhibition assay. Conditions: 0.3 mg/mL nanoprobe, 90 mg EBNA1, DSS crosslinking, SDS gel. The format is biochemical. The protocol:
EBNA1 dimerization/oligomerization inhibition assays were performed to reveal the ability of interrupting EBNA1 dimerization/oligomerization in the presence of the previous nanoprobe UCNP-P4 and the nanoplatforms in situ.
(conc.: 0.3 mg/mL) at 4° C. overnight. Then, 2 mM disuccinimidyl suberate (DSS) was added to allow the samples to undergo crosslinking reaction at room temperature for 30 min. The samples were run and separated on an SDS-denaturing gel and proteins were detected using Coomassie Blue staining. PBS buffer was used as control group.

The next data set relates to C666 cells. Description: Cellular uptake by ICP-MS, C666. The class given is cell-based. On the procedure: (§1) Subsequently, the quantitative distribution and uptake efficiency of nanoprobes in vitro in C666, HK1, HK1-LMP1 and LCL3 cells lines were monitored and investigated by evaluating the lanthanide content originating from the nanoprobes using inductively coupled plasma mass spectrometry (ICP-MS).
(§2) After co-incubation, the cell culture medium containing the nanoprobes was removed, and the exposed cells were further rinsed with 1 mL PBS three times. After that, the cells were trypsinized and re-dispersed in 1 mL cell medium. The cells were collected by centrifugation at 1500 rpm, and the cell pellet was digested in 100 μL concentrated HNO3 (69%) at room temperature for 3 h. Then, each cell pellet in centrifuge tube was filled up to 10 mL with 1% HNO3. The cellular uptake of all the nanoprobes was recorded via an Agilent 7500 series ICP-MS instrument. All ICP experiments were performed three times, and the values of Gd concentration (ppm) obtained were calculated and averaged.

The subject of another data set is LCL3 cells. In words: Cellular uptake by ICP-MS, LCL3. The format is cell-based. The protocol:
as §1, §2

A further data set relates to p65. In words: Western blot of p65 (NF-κB) in LCL3 cells. The format is cell-based. From the text:
NF-κB signaling pathway is critical for the survival of EBV-infected tumor cells. Here we investigated if our nanoprobes could affect this oncogenic pathway. EBV-positive LCL3 and C666 cells were used as models, EBV-negative HK1 cells were used as control and Western blot was used to analyze the protein expression of p65, a major transcription factor in the NF-κB family. […] GAPDH and Histone are regarded as internal standards in cytosolic and nuclear fractions, respectively. […] This is consistent with the cellular uptake results.
Western blotting: EBV-positive C666, LCL3 and EBV-negative HK1 cell pellets were treated with phosphatase and protease inhibitors at 0-4° C. for 30 min. The total protein concentrations were calculated by protein absorbance. The protein was resolved by sodium dodecyl sulfate-polyacrylamide gel electrophoresis (SDS-PAGE) and transferred to cellulose filter membranes. The membranes were blocked with 3% BSA in Tris-buffered saline in 0.1% Tween 20 (TBST) for 1 h with gentle shaking and subsequently incubated with primary antibodies (1:1000) in 3% BSA in TBST at 4° C. for overnight. After rinsing with TBST buffer three times, the blots were then incubated with corresponding secondary anti-rabbit antibody (1:6000) for 1 h. After that, the blots were rinsed again with 3% BSA in TBST for 1 h shaking at room temperature. Lastly, the density of bands was determined by image analysis system after washing with TBST buffer three times.
Background: A western blot detects proteins with antibodies after separation by electrophoresis.

The subject of a further data set is EBV-positive C666 cells. Description: Two-photon confocal imaging, C666. The following applies: mainly from the nuclei, 24 h incubation. The format is cell-based. The protocol: After the study of cellular uptake, fluorescent confocal microscopy was used to study the sub-cellular localization with the same set of EBV-/LMP1-positive and -negative cell lines. All these cell lines were treated with as-prepared samples for different time intervals of 1 h, 3 h, 6 h, 12 h and 24 h. Fluorescence signals in the cells were imaged under 980 nm excitation.
The cells were then co-stained with 0.05 mM nuclear dye DRAQ5 for 0.5 h for confocal imaging with a Leica SP8 confocal microscope equipped with a coherent femtosecond laser (690-1050 nm), argon laser (432 nm, 457 nm and 488 nm), He—Ne laser (632 nm), UV lamp. A stage-top cell culture chamber was also used to maintain the atmospheric conditions of 2-7% CO2 and a temperature of 37° C.

Another data set has as its system C666 derived xenografts. In words: In vivo suppression assay, C666 xenograft. The text has this: To determine the antitumor efficacy of the new nanoprobes in vivo, their therapeutic effects were investigated in C666 and HeLa derived xenografts in BALB/c nude mice. The mice were randomly divided into five groups: (1) control (PBS), (2) UCNP, (3) UCNP-P5, (4) UCNP-P6, (5) UCNP-P7. In order to recapitulate the clinical setting of drug delivery, intravenous injection (via a tail vein) was used to deliver these agents to the immunocompromised animal.
In vivo suppression assays: EBV-positive C666 and EBV-negative HeLa cells were suspended in 200 μL of serum-free RMPI 1640 and DMEM respectively. Female BALB/c nude mice (6-8 weeks) which obtained from HKU were then injected with the cells in the right flank. Intravenous injections were performed when the average tumor volumes reached ˜200 mm^3. 0.25 mg/tumor dose of UCNP and UCNP-Pn [n=5, 6 and 7 (SEQ ID NO: 5, 6, 7)] in […] PBS buffer were injected through tail vein of mice using a 24-gauge syringe. Mice injected with the same volume of PBS buffer served as control. The body weight and tumor volumes of the mice were measured three times per week; in which the latter is calculated by (L×W^2)/2, where L and W are the longer and shorter tumor dimensions respectively. Intravenous injection at the tail vein were performed twice a week and the mice were sacrificed after 33-day experimental period; the tumors were extracted and weighed. The treatment groups are unknown to the investigators for the experimental and data analysis processes. The animal experiments conducted were approved by the Department of Health of the HKSAR Government. All animal procedures are within the Guidelines for Care and Use of Laboratory Animals of HKBU and approved by the Animal Ethics Committee of HKBU.
Hematoxylin and eosin (H&E) staining: In general, the transplanted C666 and HeLa derived tumor tissues were collected and fixed with formalin, followed by embedding in paraffin. The histologic sections were then stained with hematoxylin and eosin. Other major organ tissues (heart, liver, spleen, lung, kidney, brain) were conducted in the same procedures.

The mark [3] stands for this setting: C666 tumor-bearing mice, 33-day experimental period.

Where no end group is shown, it is not given here. [ ]: non-standard residue; d: D form. Ahx = NCCCCCC(=O)O

Chain of EBNA1 (DNA-binding domain fragment of a.a.468-607) (P03211 468-607): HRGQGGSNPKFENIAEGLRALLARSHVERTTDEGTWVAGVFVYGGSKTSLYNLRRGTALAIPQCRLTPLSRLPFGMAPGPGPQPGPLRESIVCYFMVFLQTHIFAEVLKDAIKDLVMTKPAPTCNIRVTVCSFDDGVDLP

With “UCNP-P5: UCNP is NaGdF4:Yb^3+, Er^3+@NaGdF4 and plurality of polypeptides is Ahx-YFMVFGGRrRKGGFWLY (SEQ ID NO: 5), pH-sensitive imine linker ([Ahx]YFMVFGGR[dR]RKGGFWLY; also: conjugated to UCNP NaGdF4:Yb3+,Er3+@NaGdF4 via pH-sensitive imine linker)”, the Peptide release rate in data set [1] (pH 5.0) came out at 84.6%; in data set [1] (pH 5.5), 56.1%; in data set [1] (pH 6.0), 34.8%; in data set [1] (pH 6.5) it was 20.9%; in data set [1] (pH 7.0), 6.1%; in data set [1] (pH 7.4) it was 0%. Further, in data set [2], the “Inhibition of EBNA1 dimerization/oligomerization” value was “eradicate all 90 mg EBNA1 dimers and oligomers”. Further, the “Cellular uptake (Gd amount by ICP-MS)” value in the data set on C666 cells (50 μg/mL) and in the data set with LCL3 cells (50 μg/mL) was “largest amount of cellular uptake” in each case. The “Gd amount relative to UCNP-P4” value in the data set on C666 cells (24 h incubation) and with LCL3 cells (24 h incubation) was “over twice” in each case. For the same substance, the “Decreased p65 expression, nuclear fraction” value with p65 stood at 86%. Besides, the “Responsive emission enhancement (lambda scan)” value in the data set with EBV-positive C666 cells was “two-fold”. Further, the “Effect on average tumor size” value in the data set with C666 derived xenografts (12.5 mg/kg, intravenous (tail vein), twice a week, 33 days) was “significantly reduce the average tumor size”. Also, the “Tumor uptake relative to UCNP-P6 and UCNP-P7 (ICP-MS biodistribution)” value with C666 derived xenografts (C666 tumor, Gd ions) is listed as around 3 fold. Also, the Body weight entry with C666 derived xenografts (setting [3]) was “slightly increased”. In addition, the Various organ weights result in the data set on C666 derived xenografts (setting [3]) is given as “slightly increased”.
